Laboratory results reported in patent publication US6893870 (Human Genome Sciences, dated 2005).

Molecular target: tissue plasminogen activator (UniProt P00750 36-562, limits assumed)
Assay: cell-based or functional assay

tissue plasminogen activator, sequence (P00750 36-562 limits assumed): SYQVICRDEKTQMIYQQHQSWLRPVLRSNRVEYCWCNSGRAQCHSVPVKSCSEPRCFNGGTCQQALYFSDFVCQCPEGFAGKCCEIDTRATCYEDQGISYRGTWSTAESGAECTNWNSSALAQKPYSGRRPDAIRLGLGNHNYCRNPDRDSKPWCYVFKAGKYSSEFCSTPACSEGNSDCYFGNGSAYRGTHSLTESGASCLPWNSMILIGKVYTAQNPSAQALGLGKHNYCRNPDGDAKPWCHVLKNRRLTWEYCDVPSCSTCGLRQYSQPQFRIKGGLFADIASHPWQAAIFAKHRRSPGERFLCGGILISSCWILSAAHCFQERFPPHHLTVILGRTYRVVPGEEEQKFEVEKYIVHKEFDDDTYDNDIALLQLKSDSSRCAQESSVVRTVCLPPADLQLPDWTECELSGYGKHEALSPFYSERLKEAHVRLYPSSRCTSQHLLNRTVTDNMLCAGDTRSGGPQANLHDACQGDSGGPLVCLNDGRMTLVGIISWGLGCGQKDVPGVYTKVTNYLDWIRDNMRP

B1: pancreas-derived plasminogen activator inhibitor (PAPAI) protein (other)
chain: SRCSAQKNTEFAVDLYQEVSLSHKDNIIFSPLGITLVLEMVQLGAKGKAQQQIRQTLKQQETSAGEEFLVLKSFCSAISEKKQEFTFNLANALYLQEGFTVKEQYLHGNKEFFQSAIKLVDFQDAKACAEMISTWVERKTDGKIKDMFSGEEFGPLTRLVLVNAIYFKGDWKQKFRKEDTQLINFTKKNGSTVKIPMMKALLRTKYGYFSESSLNYQVLELSYKGDEFSLIIILPAEGMDIEEVEKLITAQQILKWLSEMQEEEVEISLPRFKVEQKVDFKDVLYSLNITEIFSGGCDLSGITDSSEVYVSQVTQKVFFEINEDGSEAATSTGIHIPVIMSLAQSQFIANHPFLFIMKHNPTESILFMGRVTNPDTQEIKGRDLDSL
  anti-tPA activity (plasminogen activator inhibitory activity) of concentrated conditioned media: 3 fold over PAPAI negative clones
